Assay results published in CN107793479A (SHANGHAI JIBEI BIOLOGICAL TECH CO LTD, dated 2018).
Numbering of substitutions follows the chain as printed.

T1: CD19抗原 (B lymphocyte antigen CD19) (human, UniProt P15391 20-291, limits assumed, biotin label in Examples 2-4 (site not stated))
T1 construct: also called CD19-his; CD19-his-biotin; not shown: his tag
T1 sequence (looked up): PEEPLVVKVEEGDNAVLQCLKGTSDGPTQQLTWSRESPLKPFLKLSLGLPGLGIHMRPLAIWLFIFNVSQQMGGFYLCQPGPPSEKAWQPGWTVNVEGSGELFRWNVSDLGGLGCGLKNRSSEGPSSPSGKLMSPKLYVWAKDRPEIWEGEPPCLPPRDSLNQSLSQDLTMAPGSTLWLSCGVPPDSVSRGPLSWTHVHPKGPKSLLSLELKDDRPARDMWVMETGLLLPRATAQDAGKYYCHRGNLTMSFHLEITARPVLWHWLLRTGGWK

B1: Combo-5 (scFv in periplasmic extract) (scFv)
scFv: EVKLQESGPGLVAPSQSLSVTCTVSGWSLEDYGVSWIRQSPRKGLEWLGGIIGSQTTYYLAGLKSRLTIIKDNSKSQVFLKMNSLQTDDTAIYYCAKHRYYGGSFDMDYWGQGTSVTVSSGGGGSGGGGSGGGGSDIQMTQTTSSLSASLGDRVTISCRASQDISKYLNWYQQKPDGTVKLLIYHTSRLHSGVPSRFSGSGSGTDYSLTISNLEQEDIATYFCQQGNTLPYTFGGGTKLEIT
notes: Soluble scFv in E. coli periplasmic extract (PPE), not purified
B2: Combo-10 (scFv in periplasmic extract) (scFv)
scFv: EVKLQESGPGLVAPSQSLSVTCTVSGVSLPDYGVSWIRQPPRKGLEWLGVIWGSETTYYNSALKSRLTIIKDNSKSQVFLKMNSLQTDDTAIYYCAKHYYYGGSYAMDYWGQGTSVTVSSGGGGSGGGGSGGGGSDIQMTQTTSSLSASLGDRVTISCRASQPIRRYLNWYQQKPDGTVKLLIYHTSRLHSGVPSRFSGSGSGTDYSLTISNLEQEDIATYFCQQGKKAPLTFGGGTKLEIT
notes: as for B1
B3: Combo-14 (scFv in periplasmic extract) (scFv)
scFv: B2 scFv with P40S, Q162M, P163D, R165K, R166K
notes: as for B1
B4: Combo-9 (scFv in periplasmic extract) (scFv)
scFv: B2 scFv with H185Q, H190A, S191W
notes: as for B1
B5: Combo-13 (scFv in periplasmic extract) (scFv)
scFv: B2 scFv with P40S, Q162M, P163D, R165K, R166K, H185Q, H190A, S191W
notes: as for B1
B6: Combo-7 (scFv in periplasmic extract) (scFv)
scFv: B1 scFv with R99W, D106A
notes: as for B1
B7: Combo-6 (scFv in periplasmic extract) (scFv)
scFv: B1 scFv with G50V, I52W, Q55E, L60N, A61S, G62A
notes: as for B1
B8: Combo-8 (scFv in periplasmic extract) (scFv)
scFv: B1 scFv with G50V, I52W, Q55E, L60N, A61S, G62A, R99W, D106A
notes: as for B1

Each binder was assayed against T1, CD19抗原 (B lymphocyte antigen CD19) (assay: ELISA of periplasmic extract dilutions on a CD19-coated plate, OD450).

Binding result, binds:
B1
B2
B3
B4
B5
B6
B7
B8
